B1: AnfK, K subunit of the Fe nitrogenase catalytic component (Rhodobacter capsulatus) (natural protein, UniProt Q07935 1-460, looked up)
chain: MTCQVTQKAREGTINPIFTCQPAGAQFASIGIKDCIGIVHGGQGCVMFVRLLISQHMKESFEIASSSVHEDGAVFGALDRVETAVEVLLTRYPDVKVVPIITTCSTEIIGDDVDGLLSKLEDELLPTKFPGREVHLLTVHCPSFVGSMITGYDKAVHDFVKKFATKDEPSDKINLITGWVNPGDVKELKHLLEVMEVKANVLFEVESFDSPLMPDLEHHSHGSTTIEDLRDTANAKGTIALNRYEGMKAADYLKKKFKVPAVIGPTPVGIRNTDAFLKAVSEMTGQPIPAQLVKERGLALDAIADIGHMFLADKRVAIYANPDLAIGLTEFCLDLEMKPKLLLLGDDNSGYVKDPRVVALQENAPDLEIVTNADFWDLESRIQQGLELDLILGHSKGRFISIDYKVPMVRVGFPTYDRAGMYRHPVLGYGGAMFLAETMANTLFADMEAKKNKEWILNVW
notes: AnfK, beta (K) subunit of the Fe-only nitrogenase, Rhodobacter capsulatus B10S; the anfHDGK operon was amplified whole from genomic DNA; Single subunit, written for the subunit-to-subunit rows of the complexes solved here
B2: Fe nitrogenase reductase component AnfH2 (Rhodobacter capsulatus) (enzyme, UniProt Q07942 1-275, looked up)
chain: MTRKIAIYGKGGIGKSTTTQNTAAALAFFHEKNVFIHGCDPKADSTRLILGGLPQQTVMDTLRIEGAERVTVDKVVKTGFKDIRCVESGGPEPGVGCAGRGVITAIDLMEENEAYSEDLDFLFFDVLGDVVCGGFAMPIRDGKAEEVYIVASGEMMAIYAANNICKGLAKYARQSGVRLGGIICNSRNVDGEKEFLEEFTKAIGTKMIHFVPRDNIVQKAEFNKQTVTEFQPEANQAQEYRELGRKIIENEDFVIPKPLAMDELEAMVVKYGLMD
notes: AnfH, nitrogenase iron protein of the Fe-only nitrogenase, Rhodobacter capsulatus B10S; the anfHDGK operon was amplified whole from genomic DNA; Homodimer with one [Fe4S4] cluster between the two chains; in the trapped complex one MgADP·AlF3 per chain; His6-tag inserted without any linker; no cleavage step is described; also called H subunit
B3: AnfG, G subunit of the Fe nitrogenase catalytic component (Rhodobacter capsulatus) (natural protein, UniProt Q07934 1-115, looked up)
chain: MTDISEKLDPLVDYIMKNCLWQFNSRGWDRLKQNAGILSQTCEILCGEEPVHETAMDRCYWVDAVILSRAYKARFPWLMAMTKPEIKSLFKALHEKIDHLTVHGSLNTELTVPHY
notes: AnfG, delta (G) subunit of the Fe-only nitrogenase, Rhodobacter capsulatus B10S; the anfHDGK operon was amplified whole from genomic DNA; Single subunit, written for the subunit-to-subunit rows of the complexes solved here

Tests used:
[1] = target: T1, AnfD, D subunit of the Fe nitrogenase catalytic component (Rhodobacter capsulatus) (Rhodobacter capsulatus, UniProt Q07933 1-526); assay: cryo-EM structure; catalytic component Anf(DGK)2 alone with CHAPSO (0.4% m/V) added on the grid right before plunge freezing; 2.49 Å, C2 symmetry; details: both partners purified
T1 construct: AnfD, alpha (D) subunit of the Fe-only nitrogenase, Rhodobacter capsulatus B10S; the anfHDGK operon was amplified whole from genomic DNA; Single subunit, written for the subunit-to-subunit rows of the complexes solved here

[2] = target: the molecule itself; assay: mass photometry; individual nitrogenase components; 500 nM stock diluted 0.5 µl into 19.5 µl of 150 mM NaCl, 50 mM Tris pH 7.8, 10% glycerol, 10 mM dithionite
[3] = target: T2, Fe nitrogenase catalytic component Anf(DGK)2 (Rhodobacter capsulatus) (Rhodobacter capsulatus, UniProt Q07933 1-526; Q07934 1-115; Q07935 1-460); assay: SEC; 4 nmol catalytic and 32 nmol reductase component, 1 h at 30 °C in 100 mM MOPS, 50 mM Tris, 100 mM NaCl pH 7.3, 5 mM dithionite, 4 mM NaF, 0.2 mM AlCl3, 8 mM MgCl2, 1 mM ATP (ADP·AlF3 trap); SEC in 50 mM Tris pH 7.8, 200 mM NaCl, 5 mM dithionite; anaerobic; details: both partners purified
T2 construct: AnfD, alpha (D) subunit of the Fe-only nitrogenase, Rhodobacter capsulatus B10S; the anfHDGK operon was amplified whole from genomic DNA; AnfG, delta (G) subunit of the Fe-only nitrogenase, Rhodobacter capsulatus B10S; AnfK, beta (K) subunit of the Fe-only nitrogenase, Rhodobacter capsulatus B10S; Heterohexamer with two P-clusters [Fe8S7] and two FeFeco [Fe8S9C-(R)-homocitrate]; Strep-tag II …

[4] = target: B2; assay: cryo-EM structure; ADP·AlF3-stabilized Anf(DGK)2(H2)2 complex after SEC, 1 mg/ml, anaerobic plunge freezing, no detergent; 2.35 Å, C2 symmetry; details: both partners purified
[5] = target: T1, AnfD, D subunit of the Fe nitrogenase …; assay: mass photometry; individual nitrogenase components; 500 nM stock diluted 0.5 µl into 19.5 µl of 150 mM NaCl, 50 mM Tris pH 7.8, 10% glycerol, 10 mM dithionite; details: both partners purified

B1
binding result [1]: binds

B2
stoichiometry N [2]: 2 subunits in the oligomer | stoichiometry N [3]: 2 AnfH2 per Anf(DGK)2

B3
binding result [4]: binds | binding result [5]: binds

From paper PMC10803253, “Structural insights into the iron nitrogenase complex” (Nature Structural & Molecular Biology, 2023)
